Our source for the Ki values is paper PMC5588548 (2017).

Common to all, as to experiment: inhibition of fluorescent peptide substrate cleavage, tight binding equation
One experiment concerns the target T1, MMP-1 catalytic domain (Homo sapiens, UniProt P03956).
T1 chain: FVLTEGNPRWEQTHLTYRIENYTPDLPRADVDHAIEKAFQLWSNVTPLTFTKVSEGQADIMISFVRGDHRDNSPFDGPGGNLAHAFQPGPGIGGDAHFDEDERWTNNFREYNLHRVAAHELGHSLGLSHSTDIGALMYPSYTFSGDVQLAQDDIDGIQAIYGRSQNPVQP

For experiment [1], the target named is T2, ADAMTS-5 lacking the C-terminal thrombospondin domain (Homo sapiens, UniProt Q9UNA0).
T2 chain: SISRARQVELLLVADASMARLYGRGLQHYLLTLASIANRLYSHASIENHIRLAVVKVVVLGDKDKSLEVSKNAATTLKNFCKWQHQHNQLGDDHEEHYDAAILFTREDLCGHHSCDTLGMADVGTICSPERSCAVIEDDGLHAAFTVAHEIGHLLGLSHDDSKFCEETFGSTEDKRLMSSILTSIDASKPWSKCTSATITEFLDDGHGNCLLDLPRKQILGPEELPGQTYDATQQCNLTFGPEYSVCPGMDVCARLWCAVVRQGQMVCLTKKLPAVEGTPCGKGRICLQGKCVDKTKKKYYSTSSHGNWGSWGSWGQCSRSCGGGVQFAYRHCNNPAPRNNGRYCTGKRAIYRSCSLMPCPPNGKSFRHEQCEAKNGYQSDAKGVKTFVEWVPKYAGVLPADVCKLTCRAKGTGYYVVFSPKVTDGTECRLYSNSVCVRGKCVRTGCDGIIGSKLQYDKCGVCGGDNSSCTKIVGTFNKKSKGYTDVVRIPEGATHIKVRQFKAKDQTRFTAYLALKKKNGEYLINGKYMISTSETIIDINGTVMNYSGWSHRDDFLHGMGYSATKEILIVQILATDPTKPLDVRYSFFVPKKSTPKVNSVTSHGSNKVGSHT

The target in a further experiment is MMP-3 catalytic domain (Homo sapiens, UniProt P08254).
Chain of MMP-3 catalytic domain (P08254 100-272): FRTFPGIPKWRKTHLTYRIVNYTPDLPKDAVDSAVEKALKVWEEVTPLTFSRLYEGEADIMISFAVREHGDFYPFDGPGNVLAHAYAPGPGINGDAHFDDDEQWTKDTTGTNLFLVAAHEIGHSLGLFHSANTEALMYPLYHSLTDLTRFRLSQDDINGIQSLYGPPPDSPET

As usually defined, the Ki is a dissociation constant, usually derived from enzyme kinetics or from competition with a known ligand. Lower therefore signals a stronger hold on the target.

B1: TIMP-3 (protein)
chain: CTCSPSHPQDAFCNSDIVIRAKVVGKKLVKEGPFGTLVYTIKQMKMYRGFTKMPHVQYIHTEASESLCGLKLEVNKYQYLLTGRVYDGKMYTGLCNFVERWDQLTLSQRKGLNYRYHLGCNCKIKSCYYLPCFVTSKNECLWTDMLSNFGYPGYQSKHYACIRQKGGYCSWYRGWAPPDKSIINATDP
modifications: suramin (0.05 µg/ml)
On to B1, for which the Ki with MMP-1 catalytic domain was determined as 0.65 nM; in experiment [1], 1.6 nM; in the experiment with MMP-3 catalytic domain, 0.76 nM.

B2: TIMP-3 (protein)
chain: B1 chain
On to B2, for which the values for the Ki (in the experiment with MMP-1 catalytic domain; in experiment [1]; with MMP-3 catalytic domain) were 0.66 nM, 2.03 nM and 1.14 nM, respectively.
